± gives the standard deviation of the averaged measurements.
Test system: ATP
Test: switch fluorescence ratio, 500 uM ATP over buffer (Cy3 cluster intensity, sum of 5 cycles each) (fold (ratio)); higher = stronger signal-on switching upon ATP binding; sequences stand for … in TCGTCGGCAGCGTCAGATGTGTATAAGAGACAGTTTTTTTTTTTTTTTTTTTTTTTTT…TC
Conditions: aptamer strand: ATP DNA aptamer (quencher-CACCTGGGGGAGTATTGCGGAGGAAGG + anchor), 100 nM annealed; ATP concentration: 500 uM
How it was run: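 Cy3-labelled switching-strand clusters on a modified Illumina MiSeq flow-cell were annealed to 100 nM quencher-labelled ATP aptamer and imaged first in selection buffer, then after 15 min with 500 uM ATP at 22 °C. NaOH stripping and re-annealing separated each of five buffer/ATP cycles, and clusters outside 100-1000 RFU were excluded. The fluorescence ratio sums target-cycle Cy3 intensity over buffer-cycle Cy3 intensity per cluster and averages it per switch-domain sequence.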
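Further: ATP exposure 15 min at 22 °C before imaging.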

Sequence | switch fluorescence ratio
GATAGTCTTG | 0.985 ± 0.023
GATAGTGGTT | 1.022 ± 0.0078
GATAGTGTAG | 1.03 ± 0.0034
GATAGTTGGG | 0.988 ± 0.02
GATATAAGCT | 1.05 ± 0.066
GATATAGAGG | 0.986 ± 0.055
GATATAGCTC | 0.999 ± 0.038
GATATAGGGT | 0.983 ± 0.018
GATATATAGA | 0.998 ± 0.032
GATATATTCG | 1 ± 0.016
GATATCCGTT | 0.976 ± 0.016
GATATCTCCT | 1.09 ± 0.011
GATATGCTGG | 0.987 ± 0.018
GATATGGATG | 0.96 ± 0.032
GATATGGGTG | 1.04 ± 0.049
GATATGTGGT | 0.9989 ± 0.004
GATATTCTTT | 0.988 ± 0.018
GATATTGAGT | 0.9648 ± 0.0073
GATATTGCTA | 0.975 ± 0.03
GATATTGGCG | 0.956 ± 0.013
GATATTGTAG | 0.986 ± 0.026
GATATTTAAG | 0.988 ± 0.042
GATATTTTGA | 1.02 ± 0.019

Sequence | switch fluorescence ratio
GATATTTTTC | 1.035 ± 0.0096
GATCAAACGG | 1 ± 0.036
GATCAATTAA | 0.9942 ± 0.007
GATCAGAGGA | 1.05 ± 0.039
GATCATAATG | 1.01 ± 0.021
GATCATGCGG | 0.9854 ± 0.0089
GATCCGGGTG | 1.38 ± 0.45
GATCCTGAAC | 1.37 ± 0.12
GATCGCTAGG | 0.984 ± 0.035
GATCGCTCGG | 1.01 ± 0.02
GATCGGCGTG | 1 ± 0.015
GATCGGGACT | 0.9826 ± 0.0047
GATCGGGCTA | 0.9664 ± 0.0014
GATCGGGCTG | 0.903 ± 0.051
GATCGTATGT | 0.9838 ± 0.0013
GATCGTTGGT | 0.991 ± 0.021
GATCGTTTGT | 1.01 ± 0.021
GATCTACCCA | 1.028 ± 0.0089
GATCTACTTG | 0.995 ± 0.017
GATCTGGTTT | 0.998 ± 0.056
GATCTGTGCG | 0.972 ± 0.032
GATCTTATCG | 0.984 ± 0.026
GATCTTATTC | 0.98506 ± 0.00068

Sequence | switch fluorescence ratio
GATGAAAAAT | 0.975 ± 0.024
GATGAAGAAA | 1.025 ± 0.0026
GATGAATCGG | 0.973 ± 0.012
GATGAGAGGG | 1.002 ± 0.0059
GATGAGATTT | 0.972 ± 0.046
GATGAGTGGT | 0.979 ± 0.02
GATGAGTTAG | 0.973 ± 0.017
GATGAGTTGA | 0.988 ± 0.02
GATGATATTG | 0.992 ± 0.012
GATGATCGGG | 1.02 ± 0.013
GATGATGGAG | 1.02 ± 0.011
GATGATTATC | 0.986 ± 0.022
GATGATTCGG | 0.984 ± 0.037
GATGCACTCC | 1.911 ± 0.0078
GATGCAGCGA | 1.107 ± 0.011
GATGCAGGCC | 0.892 ± 0.017
GATGCCGGGA | 1.02 ± 0.038
GATGCGAGGT | 0.952 ± 0.02
GATGCTCGAA | 0.989 ± 0.025
GATGCTTTTT | 1.02 ± 0.018
GATGGAAACT | 1.008 ± 0.0072
GATGGAAGTT | 1 ± 0.018
GATGGACATA | 1.031 ± 0.0015

Sequence | switch fluorescence ratio
GATGGCCGCG | 1.03 ± 0.024
GATGGGATGC | 1.07 ± 0.071
GATGGGCACC | 1.01 ± 0.012
GATGGGCGGT | 0.9773 ± 0.0094
GATGGGGGAA | 0.986 ± 0.049
GATGGGGGTC | 1.21 ± 0.34
GATGGGTATT | 0.968 ± 0.015
GATGGGTCTA | 0.966 ± 0.029
GATGGTAAAC | 1.05 ± 0.056
GATGGTAGCC | 0.9862 ± 0.0098
GATGGTGTGA | 0.978 ± 0.014
GATGGTTGCG | 1.02 ± 0.022
GATGGTTGGA | 0.9825 ± 0.0056
GATGGTTTTT | 1 ± 0.016
GATGTACCGC | 1.12 ± 0.042
GATGTAGATA | 0.9778 ± 0.0032
GATGTAGGGG | 0.999 ± 0.024
GATGTAGGTT | 0.98 ± 0.029
GATGTAGTTT | 0.993 ± 0.027
GATGTCACGA | 1.03 ± 0.028
GATGTCAGGC | 0.996 ± 0.01
GATGTCTATC | 1.01 ± 0.011
GATGTGCGTG | 0.9956 ± 0.0091

Sequence | switch fluorescence ratio
GATGTGGCTT | 0.961 ± 0.015
GATGTGGTGC | 1.016 ± 0.0038
GATGTGTCTG | 0.999 ± 0.026
GATGTTATTA | 0.979 ± 0.038
GATGTTTCAT | 0.979 ± 0.018
GATGTTTTTC | 0.97003 ± 0.00087
GATTAAAAAG | 0.99 ± 0.062
GATTAAAAT | 1.01 ± 0.013
GATTAAATAT | 1.02 ± 0.012
GATTAAATTA | 1.01 ± 0.021
GATTAAATTT | 1.01 ± 0.033
GATTAATGGG | 0.995 ± 0.023
GATTACCAAG | 1.03 ± 0.025
GATTACGGCC | 1.06 ± 0.035
GATTAGGTGT | 1.098 ± 0.0067
GATTAGGTTG | 0.968 ± 0.072
GATTATAATC | 1.01 ± 0.015
GATTATATAT | 0.986 ± 0.015
GATTATTTAG | 0.997 ± 0.019
GATTCATCTA | 0.983 ± 0.029
GATTCATGTT | 0.998 ± 0.013
GATTCATTAG | 0.9925 ± 0.0015
GATTCCAAAA | 0.975 ± 0.011

Sequence | switch fluorescence ratio
GATTCGGGGA | 0.999 ± 0.014
GATTCGTTTT | 1 ± 0.031
GATTCTTAAG | 1 ± 0.022
GATTCTTGTC | 1.01 ± 0.035
GATTGAACGG | 0.997 ± 0.0086
GATTGAGAGC | 0.9928 ± 0.005
GATTGATGGG | 0.995 ± 0.024
GATTGCATGA | 0.996 ± 0.024
GATTGCCAGG | 1.05 ± 0.035
GATTGCGAGG | 0.9887 ± 0.0059
GATTGCGCAT | 1 ± 0.03
GATTGCTTGA | 0.999 ± 0.034
GATTGGAGCG | 1.008 ± 0.0031
GATTGGATGA | 0.992 ± 0.045
GATTGGGCTG | 0.984 ± 0.056
GATTGGGGTG | 1 ± 0.035
GATTGGGGTT | 0.978 ± 0.036
GATTGGGTCC | 1 ± 0.02
GATTGGGTTT | 0.999 ± 0.019
GATTGGTGCG | 0.976 ± 0.015
GATTGGTTGC | 0.9941 ± 0.0019
GATTGTACTC | 1.022 ± 0.01
GATTGTAGCT | 0.987 ± 0.023

Sequence | switch fluorescence ratio
GATTGTGGGG | 0.969 ± 0.015
GATTGTTCTG | 0.9804 ± 0.0049
GATTTAAATA | 0.98 ± 0.018
GATTTACATA | 1.01 ± 0.019
GATTTACATT | 1.019 ± 0.0024
GATTTAGACT | 1.04 ± 0.071
GATTTATAGG | 0.972 ± 0.052
GATTTATGG | 0.994 ± 0.058
GATTTCACTC | 1 ± 0.026
GATTTCATCA | 0.967 ± 0.057
GATTTCATGG | 0.9784 ± 0.0044
GATTTGTGTC | 0.955 ± 0.081
GATTTTCCGT | 1.009 ± 0.009
GATTTTGCGA | 0.983 ± 0.033
GATTTTTACG | 1 ± 0.033
GCAAAAATCT | 1.01 ± 0.046
GCAAAACA | 1.3 ± 0.41
GCAAAAGGGA | 1.01 ± 0.013
GCAAAAGTTT | 0.99 ± 0.012

— the supplement of paper PMC10126150
